Results on eight molecules are retold here after US20260028403A1 (Zymeworks, published 2026).

Residue numbers refer to the chain shown, from its start. In names and notes the source's numbering stands.

B1: v34914 (trispecific antibody, human IgG1, lambda, L234A L235A)
heavy 1: not shown
heavy 2: EIVLTQSPATLSLSPGERVTMSCSASSSVSYMHWYQQKPGQAPRLWIYDTSKLASGVPARFSGSGSGTDYTLTISSVEPEDNAVYYCQQWSGHPLTFGQGTKVEIKGGGGSGGGGSGGGGSGGGGSQVQLVQSGAEVKKPGASVKISCKASGYSFTGYTMNWVRQAPGQGLEWIGLITPYSGASSYAQKFQGRATLTVDKSTSTAYMELSSLRSEDTAVYYCARGGYDGRGFDYWGQGTNVTVSSAAEPKSSDKTHTCPPCPAPEAAGGPSVFLFPPKPKDTLMISRTPEVTCVVVSVSHEDPEVKFNWYVDGVEVHNAKTKPREEQYNSTYRVVSVLTVLHQDWLNGKEYKCKVSNKALPAPIEKTISKAKGQPREPQVYVLPPSRDELTKNQVSLLCLVKGFYPSDIAVEWESNGQPENNYLTWPPVLDSDGSFFLYSKLTVDKSRWQQGNVFSCSVMHEALHNHYTQKSLSLSPG
light: NFMLTQPHSVSESPGKTVTISCKRNTGNIGSNYVNWYQQHEGSSPTTIIYRNDKRPDGVSDRFSGSIDRSSKSASLTISNLKTEDEADYFCQSYSSGFIFGGGTKLTVLGQPKAAPSVTLFPPSSEELQANKATLVCLISDFYPGAVTVAWKADSSPVKAGVETTTPSKQSNNKYAASSYLSLTPEQWKSHRSYSCQVTHEGSTVEKTVAPTECS
notes: Het Fc, FcKO; also called CD28xCD3xMSLN trispecific
B2: v34916 (trispecific antibody, human IgG1, lambda, L234A L235A)
heavy 1: not shown
heavy 2: B1 heavy 2
light: NFMLTQPHSVSESPGKTVTISCKRNTGNIGSNYVNWYQQHEGSSPTTIIYRNDKRPDGVSDRFSGSIDRSSKSASLTISNLKTEDEADYFCQSYSSGFIFGGGTKLTVLGQPKAAPSVTLFPPSSEELQANKATLVCLISDFYPGAVTVAWKADSSPVKAGVETTTPSKQSNNKYAASSYLSLTPEQWKSHRSYSCQVTHEGSTVEKTVAPTECSGGGGSGDIQMTQSPSSLSASVGDRVTITCRASESVEYYVTSLMQWYQQKPGKAPKLLIYAASNVDSGVPSRFSGSGSGTDFTLTISSLQPEDIATYYCQQSRKVPFTFGGGTKVEIKGGGGSGGGGSGGGGSGGGGSQVQLQESGPGLVKPSETLSLTCAVSGFSLTSYGVHWIRQPPGKGLEWLGVIWPGGGTNFNSALMSRLTISEDTSKNQVSLKLSSVTAADTAVYYCARDRAYGNYLYAMDYWGQGTLVTVSS
notes: CD28 scFv on C-terminus of the CD3 Fab light chain; Het Fc, FcKO; also called CD3xCD28xMSLN trispecific
B3: v34917 (trispecific antibody, human IgG1, lambda, L234A L235A)
heavy 1: EVQLVESGGGLVQPGGSLRLSCAASGVTFNYYGMSWIRQAPGKGLEWVASITSSGGRIYYPDSVKGRFTISRENTQKTLYLQMNSLRAEDTAVYYCTLDGRDGWVAYWGQGTLVTVSSASTKGPSVFPLAPSSKSTSGGTAALGCLVKDYFPEPVTVSWNSGALTSGVHTFPAVLQSSGLYSLSSVVTVPSSSLGTQTYICNVNHKPSNTKVDKKVEPKSCDKTHTCPPCPAPEAAGGPSVFLFPPKPKDTLMISRTPEVTCVVVSVSHEDPEVKFNWYVDGVEVHNAKTKPREEQYNSTYRVVSVLTVLHQDWLNGKEYKCKVSNKALPAPIEKTISKAKGQPREPQVYVYPPSRDELTKNQVSLTCLVKGFYPSDIAVEWESNGQPENNYKTTPPVLDSDGSFALVSKLTVDKSRWQQGNVFSCSVMHEALHNHYTQKSLSLSPGGGGGSGDIQMTQSPSSLSASVGDRVTITCRASESVEYYVTSLMQWYQQKPGKAPKLLIYAASNVDSGVPSRFSGSGSGTDFTLTISSLQPEDIATYYCQQSRKVPFTFGGGTKVEIKGGGGSGGGGSGGGGSGGGGSQVQLQESGPGLVKPSETLSLTCAVSGFSLTSYGVHWIRQPPGKGLEWLGVIWPGGGTNFNSALMSRLTISEDTSKNQVSLKLSSVTAADTAVYYCARDRAYGNYLYAMDYWGQGTLVTVSS
heavy 2: B1 heavy 2
light: B1 light
notes: as for B1
B4: v34913 (trispecific antibody, human IgG1, kappa, L234A L235A)
heavy 1: not shown
heavy 2: B1 heavy 2
light: DIQMTQSPSSLSASVGDRVTITCRASESVEYYVTSLMQWYQQKPGKAPKLLIYAASNVDSGVPSRFSGSGSGTDFTLTISSLQPEDIATYYCQQSRKVPFTFGGGTKVEIKRTVAAPSVFIFPPSDEQLKSGTASVVCLLNNFYPREAKVQWKVDNALQSGNSQESVTEQDSKDSTYSLSSTLTLSKADYEKHKVYACEVTHQGLSSPVTKSFNRGEC
notes: CD3 scFv on N-terminus of CD28 Fab; MSLN scFv-Fc; Het Fc, FcKO; also called CD3xCD28xMSLN trispecific
B5: v34927 (bispecific antibody, human IgG1, kappa, L234A L235A)
heavy 1: not shown
heavy 2: B1 heavy 2
light: B4 light
notes: MSLN VL-VH scFv); also called anti-(MSLNxCD28) bispecific control
B6: v34919 (bispecific antibody, human IgG1, lambda, L234A L235A)
heavy 1: not shown
heavy 2: B1 heavy 2
light: B1 light
notes: MSLN VL-VH scFv); also called anti-(MSLNxCD3) bispecific control
B7: v37693 (trispecific antibody, human IgG1, kappa, L234A L235A)
heavy 1: not shown
heavy 2: QVQLVESGGGLVQPGGSLRLSCSVSGIDLSSNPMIWVRQAPGKGLQYIGIIDTDGSTYYADWAKGRFTISKDSTTVYLQINSPRAEDTAVYYCARRLHGSSNGYYDDLWGQGTLVTVSSGGGGSGGGGSGGGGSGGGGSDGQMTQSPSSVSASVGDRVTITCQASQSIYSYLSWYQQKPGQRPKLLIYKASTLASGVPSRFSGSGSGTDFTLTISSVQPEDFATYYCQQGYTVTNVDKNTFGGGTKVEIKAAEPKSSDKTHTCPPCPAPEAAGGPSVFLFPPKPKDTLMISRTPEVTCVVVSVSHEDPEVKFNWYVDGVEVHNAKTKPREEQYNSTYRVVSVLTVLHQDWLNGKEYKCKVSNKALPAPIEKTISKAKGQPREPQVYVLPPSRDELTKNQVSLLCLVKGFYPSDIAVEWESNGQPENNYLTWPPVLDSDGSFFLYSKLTVDKSRWQQGNVFSCSVMHEALHNHYTQKSLSLSPG
light: B4 light
notes: also called v37638 format, CD28 VH Y1037A
B8: v37695 (trispecific antibody, human IgG1, kappa, L234A L235A)
heavy 1: not shown
heavy 2: B7 heavy 2
light: B4 light with N57A
notes: also called v37638 format, CD28 VL N1066A

The target in one assay is T1, Recombinant human/cynomolgus/rhesus macaque CD28 mouse IgG2a Fc fusion protein (Acro Biosystems) (human/cynomolgus/rhesus macaque, UniProt P10747 19-152).
T1 construct: bought; also called huCD28
The experiment in a line: SPR Biacore T200, CD28-mIgG2a Fc on CM5, construct injected, 1:1 model.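 Further: fc fusion captured by amine coupling, run at 25 °C in HEPES buffer pH 7.4, association 140-500 s then dissociation 600-1200 s, values averaged over three independent runs.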 Background: In SPR one partner is held on a chip, and binding of the other changes the refractive index at the surface.
On to B1, for which the dissociation constant Kd is 122 nM, the off-rate constant (koff) is 0.00849 s⁻¹ and the kon was 70200 M⁻¹ s⁻¹.
Consider B2, for which the Kd turned out to be 56.5 nM, the koff is 0.000546 s⁻¹ and the on-rate (kon) is 13000 M⁻¹ s⁻¹.
In the same order, the values of B3 are 373 nM, 0.00209 s⁻¹ and 8240 M⁻¹ s⁻¹.
In the same order, the values of B4 are 45.8 nM, 0.00216 s⁻¹ and 47400 M⁻¹ s⁻¹.
The like results for B5 were, in that order, 50.7 nM, 0.00258 s⁻¹ and 50900 M⁻¹ s⁻¹.

For a further assay, the target named is T2, Recombinant MSLN his tag protein (R&D systems) (UniProt Q13421 296-580, limits assumed).
T2 construct: his tag; also called mesothelin
Briefly: SPR Biacore T200, MSLN-his on CM5, construct flowed, 1:1 model.
Turning to B1, the Kd came to 5.39 nM, the off-rate constant (koff) worked out at 0.00197 s⁻¹ and the kon is 374000 M⁻¹ s⁻¹.
Consider B2, for which the Kd was 4.78 nM, the off-rate constant (koff) worked out at 0.00181 s⁻¹ and the on-rate constant (kon) was 388000 M⁻¹ s⁻¹.
In the same order, the values of B3 are 4.96 nM, 0.00199 s⁻¹ and 411000 M⁻¹ s⁻¹.
In the same order, the values of B6 are 4.16 nM, 0.00181 s⁻¹ and 458000 M⁻¹ s⁻¹.
In the same order, the values of B4 are 6.49 nM, 0.00212 s⁻¹ and 340000 M⁻¹ s⁻¹.
Consider B5, for which the equilibrium dissociation constant (Kd) was found to be 6.86 nM, the koff came to 0.00187 s⁻¹ and the association rate constant (kon) was determined as 270000 M⁻¹ s⁻¹.

Another assay deals with T3, CD28 on primary human T cells (human, UniProt P10747 19-220). The experiment in a line: cell-based or functional assay.
In the case of B7, the “IL-2 maximum cytokine, T cells alone” value is 104 pg/mL; the “IL-2 maximum cytokine, T cells with SNU 601 cells” value stood at 3600 pg/mL; the “TNFa maximum cytokine, T cells alone” value amounted to 19.7 pg/mL; the “TNFa maximum cytokine, T cells with SNU 601 cells” value is 453 pg/mL.
In the same order, the values of B8 are 28.9 pg/mL, 3470 pg/mL, 13 pg/mL and 404 pg/mL.

The target in a further assay is T3, CD28 on primary human T cells. Briefly: cell-based or functional assay. The source holds these as a separate data set.
Regarding B7, the “IC50, T cell-dependent cytotoxicity on SNU 601” value was 0.13 pM and the “Maximum Killing (%), SNU 601” value came to 95.3%.
In the same order, the values of B8 are 0.04 pM and 89.1%.

The target of another assay is T1, Recombinant human/cynomolgus/rhesus …. The experiment in a line: SPR, in-format anti-CD28 variants, huCD28.
B7: the “Fold-change from WT” value stood at 4.1 fold, the Kd was 91.8 nM, the koff was 0.00968 s⁻¹ and the kon was found to be 106000 M⁻¹ s⁻¹.
With B8, the “Fold-change from WT” value was determined as 1.3 fold, the dissociation constant Kd is 27.7 nM, the koff is 0.00266 s⁻¹ and the association rate constant (kon) was found to be 95100 M⁻¹ s⁻¹.

For a further assay, the target named is T4, Recombinant human CD3 epsilon/delta heterodimer, his tag protein (Acro Biosystems) (human, UniProt P07766 23-126; P04234 22-105).
T4 construct: bought
Briefly: SPR Biacore T200, CD3 e/d-his on CM5, construct injected, 1:1 model.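 Further: measured at 25 °C in HEPES-buffered saline with EDTA and Tween 20 at pH 7.4, values are means of three independent runs.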
For B1, the Kd turned out to be 81.1 nM, the koff was found to be 0.0191 s⁻¹ and the on-rate (kon) was 237000 M⁻¹ s⁻¹.
For B2, the equilibrium dissociation constant (Kd) turned out to be 37.2 nM, the koff was 0.0104 s⁻¹ and the association rate constant (kon) amounted to 291000 M⁻¹ s⁻¹.
In the same order, the values of B3 are 40.8 nM, 0.0177 s⁻¹ and 444000 M⁻¹ s⁻¹.
On to B6, for which the Kd came out at 50.4 nM, the koff amounted to 0.0131 s⁻¹ and the kon amounted to 267000 M⁻¹ s⁻¹.
For B4, the equilibrium dissociation constant (Kd) amounted to 41.6 nM, the koff was 0.0112 s⁻¹ and the kon worked out at 270000 M⁻¹ s⁻¹.

Usually Kd stands for the free concentration of one partner at which half of the binding sites on the other are occupied at equilibrium, for simple one-to-one binding. The koff is the rate constant with which the complex falls apart. For orientation: kon means a measure of how fast the partners come together.
